Molecular target: T1, BA.2.12.1 S trimer (SARS-CoV-2, Omicron BA.2.12.1, strain)
T1 construct: also called BA.2.12.1 spike
Assay: cryo-EM structure
Settings: both partners purified

B1: XBB-4 Fab (Fab, V domains shown)
VH: EVQLVQSGGGLVKPGGSLRLSCAASGFSFTNAWMNWVRQAPGKGLEWVGRIKSKADGGTTDYAAPVKGKFTISRDDSKNTLYLQMNSLKTEDTAIYYCTSDVYDFSTGFGQRDDFDYWGQGTLVTVSS
VL: DIVMTQSPSSLSASVGDRVTITCRASQSISYFLNWYQQKPGKAPKLLISAASSLQSGVPSRFSGSGSGTDFTLTISSLQPEDFATYYCQQSYSSLITFGGGTKVEIK
stoichiometry N: 3 Fabs per S trimer
